Tests used:
rats [1] = assay: Passive avoidance (PA), associative learning in rats; assay type: in vivo, rat; conditions: i.c.v.; GLP-1 10 ng and 100 ng, [Ser(2)]exendin(1-9) 10 ng
Method: Passive avoidance was performed in an apparatus (MED Associates Inc., St. Albans, Vt.) consisting of one dark chamber and one light chamber that can be divided by a guillotine door. The training procedure was executed as previously described (N. Venable et al. Psychopharmacology 100, 215 (1990)). Rats were administered a 1.0 mA shock for 3 sec, mice a 0.5 mA shock for 5 sec. Retention tests were performed either at 1, 3 or 7 days post-pairing. Maximum latency was 600 sec for rats, 300 sec for mice.
In the instant invention, rats were pretreated intranasally with one of three dose levels (10 μg/kg, 30 μg/kg, or 60 μg/kg) of Gilatide in 5% β cyclodextrin or an octamer having a sequence homology to CRH and urocortin. […] A control group received vehicle (5% cyclodextrin) alone. With three dose levels for each of the peptides studied, a total of seven (7) groups were employed, each group having 5-8 rats, for a total of 50 rats tested. On the first day of conditioning, the pretreated rats (N=7-13) were administered a single foot shock trial (0.1 mA over 3 seconds) after entering the dark compartment. The animals were replaced in the test apparatus and latencies again were measured on Days 1, 3, 7, and 21 following the aversive stimulus.
Rats were pretreated with either […] 10 μg/kg Gilatide in 5% β cyclodextrin or vehicle by one of three routes of administration: intranasally, subcutaneously, or intraperitoneally. On Day 0, the rats (N=7-13) were conditioned by administration of a single foot shock trial (0.1 mA over 3 seconds) after entry into the dark compartment of a passive avoidance apparatus (the same passive avoidance chamber used in the first series of experiments). At 24 hours (Day 1) following the initial test, and delivery of the single shock, the animals were replaced in the test apparatus and latency again measured. (FIG. 7)
Rates (N=5-10) were pretreated intranasally with one of five dose levels (0.1 μg/kg, 1 μg/kg, 3 μg/kg, 30 μg/kg or 60 μg/kg) of Gilatide in 5% β cyclodextrin, vehicle (5% cyclodextrin), or Nicotine (0.3 mg/kg, subcutaneously). On Day 0, the rats were conditioned by administration of a single foot shock trial (0.1 mA over 3 seconds) after entry into the dark compartment of a passive avoidance apparatus (the same passive avoidance chamber used in the other experiments). The preconditioned rats were retested on Days 1, 3, 7, and 21.
The effect of Gilatide was tested on memory consolidation by administering the peptide after shock testing. Rats (N=7-13) were preconditioned by administering a single foot shock trial (0.1 mA over 3 seconds) after entering the dark compartment of a passive avoidance apparatus. Twenty (20) minutes after the conditioning session, one group of rats was administered 10 μg/kg of Gilatide intranasally (TRN-TXT). Another group of rats (TXT-DLY-TRN) was administered this same dose of Gilatide 24 hours after the conditioning session. Both treatment groups were returned to the test apparatus 24 hours following treatment and latencies were again measured. […] (FIG. 13)
The effects of Gilatide when used with or without an Exendin-4 antagonist were observed and measured. Rats (N=6-13) were pretreated with either 10 μg/kg or 20 μg/kg of Gilatide with or without an Exendin-4 antagonist (10 μg/kg). A control group was administered vehicle alone. The pretreated rats were conditioned on Day 0 by administration of a single foot shock trial (0.1 mA over 3 seconds) after entry into the dark compartment of a passive avoidance apparatus (the same passive avoidance chamber used in the other experiments). The preconditioned rats were retested on 24 hours later. […] (FIG. 14)
Twenty-four hours later the rats were returned to the apparatus and retested. […] (FIG. 15)

[2] = system: rat insulinoma cell line expressing the GLP-1R (RINm5f); assay: ELISA of culture media for insulin, RINm5f cells; assay type: cell-based; conditions: 10 nM peptide, 6 hours
Method: To confirm biologic activity of Gilatide peptides or analogs, a rat insulinoma cell line expressing the GLP-1R (RINm5f) can be cultured and incubated the Gilatide peptide or analogs followed by an ELISA study as described below.
To confirm biological activity of synthesized Gilatide peptide ([Ser(2)]exendin(1-9)) that was synthesized with a stearic acid residue added to the N-terminus, GLP-1 or [Ser(2)]exendin(1-9) (10 nM) were incubated with the cultured rat insulinoma cell line expressing the GLP-1R (RINm5f) in the presence or absence of the GLP-1R antagonist, exendin(9-39) (10 nM). Rat insulinoma cells (RINm5f) were cultured in 24 well plates and incubated in serum-free medium for 1 hour before treatment. The GLP-1 peptide antagonist exendin (9-39) (10 nM) was added 1 hour prior to GLP-1 (7-36) or [Ser(2)]exendin(1-9) (10 nM). Cells were then incubated for 6 hours in the presence of either GLP-1 or [Ser(2)]exendin(1-9). Media were then removed and assayed for insulin concentrations via ELISA (Pennisula Labs, San Carlos, Calif.).

rats [3] = assay: Elevated plus maze test (anxiogenic effects); assay type: in vivo, rat; design: TIME Open Arm / TIME Closed Arm: unit not given here
Method: The elevated plus maze consists of two open and two closed arms; time spent and the number of entries into open arms are indicators of neophobic anxiety in rats. The number of entries and total time spent in the open arms were tabulated over 5 min by an observer blind to the experimental condition. Animals falling off the apparatus were eliminated from the study. For the intracerebroventricular (i.c.v.) studies, rats were implanted with a cannula (22 gauge, Plastics One, Roanoke, Va.) into the left ventricle (AP 0.8 mm, ML 1.6 mm, DV 3.5 mm from dura) then allowed at least 3-4 days to recover. The peptides were infused in a total volume of 2 μl (1 μl min −1) 25 min before training with two trials per day for 5 days. The visual platform test was conducted after the last training trial on day 5 in a different location of the pool.

[4] = Blood glucose in fasting rats; assay type: in vivo, rat; conditions: for blood glucose: intra-nasal
[5] = Blood glucose in fasting rats; assay type: in vivo, rat; conditions: 24 hour fasting rats, 100 ug intraperitoneal, 20 minutes after administration
Method: Gilatide administered intraperitoneally (IP), but not intranasally (IN), lowers blood glucose levels in rats fasted for 24 hours. […] Gilatide's effect on blood glucose in fasting rats was measured. Groups of 24 hour fasting rats (n=5 or 6) were delivered either vehicle, insulin, Gilatide, GLP-1, exendin-4, Insulin A-chain, Insulin B-chain or C-peptide. Glucose levels were measured 20 minutes following intraperitoneal administration. All peptides were given at a dose of 100 ug (Table 2). In this experiment, insulin, the positive control, led to a 44% drop in blood glucose. Gilatide led to a significant drop in glucose level by 14%.

HAEGTFTSDVSSVLEGQAAKEFIAWLVKGR [GLP-1, glucagon-like peptide 1]
latency in PA (rats [1]): enhanced latency
insulin release into culture media [2]: stimulated insulin release
ENTRIES Closed Arm (rats [3]; 10 μg IN): 4.8 ± 1.0
ENTRIES Open Arm (rats [3]; 10 μg IN): 1.11 ± 0.3
TIME Closed Arm (rats [3]; 10 μg IN): 171.8 ± 10^+
TIME Open Arm (rats [3]; 10 μg IN): 11.6 ± 4
ENTRIES Closed Arm (rats [3]; 30 μg IN): 2.1 ± 0.4
ENTRIES Open Arm (rats [3]; 30 μg IN): 1.33 ± 0.4
TIME Closed Arm (rats [3]; 30 μg IN): 197.2 ± 18
TIME Open Arm (rats [3]; 30 μg IN): 22.1 ± 10
anxiogenic effect, time spent in closed arms (rats [3]; intranasal): anxiogenic
blood glucose ([4]; 3 μg): 73.8 ± 2.2 P < 0.05 mg/dl
blood glucose ([4]; 10 μg): 70.6 ± 2.5 P < 0.01 mg/dl
blood glucose ([4]; 30 μg): 71.2 ± 2.1 P < 0.05 mg/dl
fasting blood glucose levels ([4]; intranasal): lowered fasting blood glucose levels
Blood glucose mean ± s.e.m. [5]: 89.5 ± 1.1 mg/dL

Reference: patent US20050222036A1, “Peptide compositions with effects on blood glucose” (priority 2000, published 2005)
